According to article PMC2766095:
Each block holds one substance with its values, some of them ahead of it.

What was measured:
[1] = molecular target: IL-33/ST2 complex (human) (UniProt Q01638); test: ITC
[2] = molecular target: ST2 extracellular domain (ectodomain) (human) (UniProt Q01638); test: ITC
[3] = molecular target: ST2-Fc fusion protein (R&D Systems) (UniProt Q01638); test: SPR

- Kd [1]: 76 nM
- dH [1]: -11 kcal/mol
- stoichiometry N [1]: 1
Substance: IL-1 receptor accessory protein (IL-1RAcP) extracellular domain (from UniProt Q9NPH3 21-367)

- stoichiometry N [2]: 1
Substance: human IL-33 (interleukin-33), recombinant mature IL-1-like form (ligand)

- Kd [3]: 3.11 nM
Substance: IL-33 E34K (ligand)
